{"source": "patent US20220298218A1", "about": "(ANTAG THERAPEUTICS, published 2022)", "binders": {"B1": {"name": "AT452 (peptide)", "peptide": "EGTFISDYSIAMDKIK(C16 diacid)QQDFVNWLLAQKGKKNDWKH-OH", "modifications": "N-terminus assumed", "SMILES": "CC[C@H](C)[C@H](NC(=O)[C@H](CO)NC(=O)[C@H](Cc1ccc(O)cc1)NC(=O)[C@H](CC(=O)O)NC(=O)[C@H](CO)NC(=O)[C@@H](NC(=O)[C@H](Cc1ccccc1)NC(=O)[C@@H](NC(=O)CNC(=O)[C@@H](N)CCC(=O)O)[C@@H](C)O)[C@@H](C)CC)C(=O)N[C@@H](C)C(=O)N[C@@H](CCSC)C(=O)N[C@@H](CC(=O)O)C(=O)N[C@@H](CCCCN)C(=O)N[C@H](C(=O)N[C@@H](CCCCNC(=O)CCCCCCCCCCCCCCC(=O)O)C(=O)N[C@@H](CCC(N)=O)C(=O)N[C@@H](CCC(N)=O)C(=O)N[C@@H](CC(=O)O)C(=O)N[C@@H](Cc1ccccc1)C(=O)N[C@H](C(=O)N[C@@H](CC(N)=O)C(=O)N[C@@H](Cc1c[nH]c2ccccc12)C(=O)N[C@@H](CC(C)C)C(=O)N[C@@H](CC(C)C)C(=O)N[C@@H](C)C(=O)N[C@@H](CCC(N)=O)C(=O)N[C@@H](CCCCN)C(=O)NCC(=O)N[C@@H](CCCCN)C(=O)N[C@@H](CCCCN)C(=O)N[C@@H](CC(N)=O)C(=O)N[C@@H](CC(=O)O)C(=O)N[C@@H](Cc1c[nH]c2ccccc12)C(=O)N[C@@H](CCCCN)C(=O)N[C@@H](Cc1c[nH]cn1)C(=O)O)C(C)C)[C@@H](C)CC"}, "B2": {"name": "AT453 (peptide)", "peptide": "EGTFISDYSIAMDKIK(C16 diacid)QQDFVNWLLAQKGKKNDWKHNI-OH", "modifications": "N-terminus assumed", "SMILES": "CC[C@H](C)[C@H](NC(=O)[C@H](CC(N)=O)NC(=O)[C@H](Cc1c[nH]cn1)NC(=O)[C@H](CCCCN)NC(=O)[C@H](Cc1c[nH]c2ccccc12)NC(=O)[C@H](CC(=O)O)NC(=O)[C@H](CC(N)=O)NC(=O)[C@H](CCCCN)NC(=O)[C@H](CCCCN)NC(=O)CNC(=O)[C@H](CCCCN)NC(=O)[C@H](CCC(N)=O)NC(=O)[C@H](C)NC(=O)[C@H](CC(C)C)NC(=O)[C@H](CC(C)C)NC(=O)[C@H](Cc1c[nH]c2ccccc12)NC(=O)[C@H](CC(N)=O)NC(=O)[C@@H](NC(=O)[C@H](Cc1ccccc1)NC(=O)[C@H](CC(=O)O)NC(=O)[C@H](CCC(N)=O)NC(=O)[C@H](CCC(N)=O)NC(=O)[C@H](CCCCNC(=O)CCCCCCCCCCCCCCC(=O)O)NC(=O)[C@@H](NC(=O)[C@H](CCCCN)NC(=O)[C@H](CC(=O)O)NC(=O)[C@H](CCSC)NC(=O)[C@H](C)NC(=O)[C@@H](NC(=O)[C@H](CO)NC(=O)[C@H](Cc1ccc(O)cc1)NC(=O)[C@H](CC(=O)O)NC(=O)[C@H](CO)NC(=O)[C@@H](NC(=O)[C@H](Cc1ccccc1)NC(=O)[C@@H](NC(=O)CNC(=O)[C@@H](N)CCC(=O)O)[C@@H](C)O)[C@@H](C)CC)[C@@H](C)CC)[C@@H](C)CC)C(C)C)C(=O)O"}, "B3": {"name": "AT454 (peptide)", "peptide": "EGTFISDYSIAMDKIK(C16 diacid)QQDFVNWLLAQKGKKNDWKHNIT-OH", "modifications": "N-terminus assumed", "SMILES": "CC[C@H](C)[C@H](NC(=O)[C@H](CO)NC(=O)[C@H](Cc1ccc(O)cc1)NC(=O)[C@H](CC(=O)O)NC(=O)[C@H](CO)NC(=O)[C@@H](NC(=O)[C@H](Cc1ccccc1)NC(=O)[C@@H](NC(=O)CNC(=O)[C@@H](N)CCC(=O)O)[C@@H](C)O)[C@@H](C)CC)C(=O)N[C@@H](C)C(=O)N[C@@H](CCSC)C(=O)N[C@@H](CC(=O)O)C(=O)N[C@@H](CCCCN)C(=O)N[C@H](C(=O)N[C@@H](CCCCNC(=O)CCCCCCCCCCCCCCC(=O)O)C(=O)N[C@@H](CCC(N)=O)C(=O)N[C@@H](CCC(N)=O)C(=O)N[C@@H](CC(=O)O)C(=O)N[C@@H](Cc1ccccc1)C(=O)N[C@H](C(=O)N[C@@H](CC(N)=O)C(=O)N[C@@H](Cc1c[nH]c2ccccc12)C(=O)N[C@@H](CC(C)C)C(=O)N[C@@H](CC(C)C)C(=O)N[C@@H](C)C(=O)N[C@@H](CCC(N)=O)C(=O)N[C@@H](CCCCN)C(=O)NCC(=O)N[C@@H](CCCCN)C(=O)N[C@@H](CCCCN)C(=O)N[C@@H](CC(N)=O)C(=O)N[C@@H](CC(=O)O)C(=O)N[C@@H](Cc1c[nH]c2ccccc12)C(=O)N[C@@H](CCCCN)C(=O)N[C@@H](Cc1c[nH]cn1)C(=O)N[C@@H](CC(N)=O)C(=O)N[C@H](C(=O)N[C@H](C(=O)O)[C@@H](C)O)[C@@H](C)CC)C(C)C)[C@@H](C)CC"}}, "key": {"[1]": {"molecular_target": "T1, human GIP receptor (human, UniProt P48546 22-466)", "T1 sequence (looked up)": "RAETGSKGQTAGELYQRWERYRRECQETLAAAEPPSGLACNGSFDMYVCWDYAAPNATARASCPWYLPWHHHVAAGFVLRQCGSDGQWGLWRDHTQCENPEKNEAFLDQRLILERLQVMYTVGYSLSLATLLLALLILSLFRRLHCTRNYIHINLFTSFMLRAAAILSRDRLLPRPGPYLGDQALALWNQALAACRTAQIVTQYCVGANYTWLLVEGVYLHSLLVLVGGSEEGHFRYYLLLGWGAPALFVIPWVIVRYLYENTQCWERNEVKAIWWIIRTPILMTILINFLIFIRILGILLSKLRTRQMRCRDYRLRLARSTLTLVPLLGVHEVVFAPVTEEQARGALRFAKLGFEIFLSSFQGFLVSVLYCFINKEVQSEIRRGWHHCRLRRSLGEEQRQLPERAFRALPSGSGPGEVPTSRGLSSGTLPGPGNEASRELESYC", "assay": "cell-based or functional assay"}, "[2]": {"molecular_target": "T1, human GIP receptor", "assay": "cell-based or functional assay", "remark": "listed apart in the source"}}, "note": "Where two headings read alike, the source gives them in different places. Where no end group is shown, it is not given here. The star is where a group is joined. C16 diacid = O=C(O)CCCCCCCCCCCCCCC(=O)*", "data": [{"binder": "B1", "values": [{"measurement": "cAMP agonism % Emax", "setting": "[1]", "value": 0, "unit": "%"}, {"measurement": "cAMP antagonism", "setting": "[1]", "value": 7.59, "unit": "nM"}, {"measurement": "cAMP antagonism % inhib", "setting": "[1]", "value": 97, "unit": "%"}, {"measurement": "cAMP antagonism pIC50", "setting": "[1]", "value": 8.1}, {"measurement": "cAMP agonism Emax", "setting": "[2]", "value": 7.2}, {"measurement": "cAMP antagonism", "setting": "[2]", "value": 5, "unit": "nM"}, {"measurement": "cAMP antagonism % inhib", "setting": "[2]", "value": 75, "unit": "%"}, {"measurement": "cAMP antagonism log", "setting": "[2]", "value": -8.3, "unit": "log M"}]}, {"binder": "B2", "values": [{"measurement": "cAMP agonism % Emax", "setting": "[1]", "value": 0, "unit": "%"}, {"measurement": "cAMP antagonism", "setting": "[1]", "value": 6.31, "unit": "nM"}, {"measurement": "cAMP antagonism % inhib", "setting": "[1]", "value": 95, "unit": "%"}, {"measurement": "cAMP antagonism pIC50", "setting": "[1]", "value": 8.2}, {"measurement": "cAMP agonism Emax", "setting": "[2]", "value": 6.1}, {"measurement": "cAMP antagonism", "setting": "[2]", "value": 57, "unit": "nM"}, {"measurement": "cAMP antagonism % inhib", "setting": "[2]", "value": 65, "unit": "%"}, {"measurement": "cAMP antagonism log", "setting": "[2]", "value": -7.2, "unit": "log M"}]}, {"binder": "EGTFISDYSIAMDKIK(C16 diacid)QQDFVNWLLAQKGKKNDWKHN-OH", "note": "[AT362]", "values": [{"measurement": "cAMP agonism % Emax", "setting": "[1]", "value": 0, "unit": "%"}, {"measurement": "cAMP antagonism", "setting": "[1]", "value": 14.7, "unit": "nM"}, {"measurement": "cAMP antagonism % inhib", "setting": "[1]", "value": 94, "unit": "%"}, {"measurement": "cAMP antagonism pIC50", "setting": "[1]", "value": 7.8}, {"measurement": "cAMP agonism Emax", "setting": "[2]", "value": 7}, {"measurement": "cAMP antagonism", "setting": "[2]", "value": 5, "unit": "nM"}, {"measurement": "cAMP antagonism % inhib", "setting": "[2]", "value": 86, "unit": "%"}, {"measurement": "cAMP antagonism log", "setting": "[2]", "value": -8.3, "unit": "log M"}]}, {"binder": "B3", "values": [{"measurement": "cAMP agonism % Emax", "setting": "[1]", "value": 0, "unit": "%"}, {"measurement": "cAMP antagonism", "setting": "[1]", "value": 6.81, "unit": "nM"}, {"measurement": "cAMP antagonism % inhib", "setting": "[1]", "value": 84, "unit": "%"}, {"measurement": "cAMP antagonism pIC50", "setting": "[1]", "value": 8.2}, {"measurement": "cAMP agonism Emax", "setting": "[2]", "value": 8.9}, {"measurement": "cAMP antagonism", "setting": "[2]", "value": 54, "unit": "nM"}, {"measurement": "cAMP antagonism % inhib", "setting": "[2]", "value": 82, "unit": "%"}, {"measurement": "cAMP antagonism log", "setting": "[2]", "value": -7.3, "unit": "log M"}]}]}
